# ± gives the standard deviation of the averaged measurements.
# Columns and labels:
# Saccharomyces cerevisiae [1] = assay: protein stability index of tFT-peptide fusion (C-terminal peptide) (PSI (0-1 scale)); higher = more stable (slower turnover)
# Description: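 MPS profiling in S. cerevisiae of the tFT-X12 degron library: putative degron peptides plus stable controls, 12 aa, fused to the C-terminus of a sfGFP-mCherry timer. Cells are FACS-sorted into 8 mCherry/sfGFP bins and deep-sequenced. PSI runs from 0 (unstable) to 1 (stable). Backgrounds are wild type, das1Δ and doa10Δ at 30 °C, and wild type, das1Δ, cdc34-1 and cdc53-1 at 37 °C; 2-3 technical replicates each.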
# Saccharomyces cerevisiae [2] = assay: as above; conditions: genetic background: wild type; temperature: 30 C
# [3] = genetic background: cdc34-1, temperature: 37 C
# [4] = genetic background: cdc53-1, temperature: 37 C
# [5] = genetic background: das1 deletion, temperature: 30 C
# [6] = genetic background: das1 deletion, temperature: 37 C
# [7] = genetic background: doa10 deletion, temperature: 30 C
# [8] = genetic background: wild type, temperature: 30 C
# [9] = genetic background: wild type, temperature: 37 C
# 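Also: PSI is a weighted mean of sequencing reads over stability bins, variants kept only with over 10 reads, mCherry proximal and sfGFP distal, peptide attached via GGGS linker.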
Sequence,protein stability index (Saccharomyces cerevisiae [1]; [3]),protein stability index (Saccharomyces cerevisiae [1]; [4]),protein stability index (Saccharomyces cerevisiae [1]; [5]),protein stability index (Saccharomyces cerevisiae [1]; [6]),protein stability index (Saccharomyces cerevisiae [1]; [7]),protein stability index (Saccharomyces cerevisiae [1]; [8]),protein stability index (Saccharomyces cerevisiae [1]; [9]),protein stability index (Saccharomyces cerevisiae [2])
MIQPRLANIIIS,0.8517 ± 0.0056,0.864 ± 0.017,0.683 ± 0.018,0.833 ± 0.015,0.713 ± 0.024,0.6987 ± 0.0051,0.779 ± 0.017,0.753 ± 0.018
GLVVMFVIAGGG,0.405 ± 0.0067,0.459 ± 0.008,0.284 ± 0.05,0.5057 ± 0.00061,0.2577 ± 0.0014,0.299 ± 0.034,0.464 ± 0.015,0.404 ± 0.015
LHLLFLPFVVCL,0.212 ± 0.017,0.2458 ± 0.0015,0.216 ± 0.037,0.348 ± 0.027,0.0556 ± 0.012,0.0711 ± 0.025,0.113 ± 0.014,0.108 ± 0.02
LLLPSAPFLFLL,0.305 ± 0.015,0.256 ± 0.0043,0.307 ± 0.041,0.435 ± 0.029,0.3387 ± 0.0022,0.201 ± 0.017,0.288 ± 0.014,0.2954 ± 0.0012
FASFLFFCYIIF,0.124 ± 0.042,0.118 ± 0.0078,0.192 ± 0.034,0.2631 ± 0.00071,0.24 ± 0.022,0.154 ± 0.04,0.213 ± 0.018,0.197 ± 0.0022
HALCLSVYVSAH,0.265 ± 0.0049,0.304 ± 0.022,0.249 ± 0.031,0.397 ± 0.018,0.179 ± 0.0045,0.185 ± 0.02,0.323 ± 0.018,0.281 ± 0.024
PCFACIAFVLFP,0.451 ± 0.013,0.413 ± 0.093,0.356 ± 0.038,0.509 ± 0.032,0.334 ± 0.013,0.343 ± 0.014,0.4507 ± 0.0011,0.4827 ± 0.004
WVFVETVFLVCG,0.147 ± 0.046,0.226 ± 0.04,0.176 ± 0.038,0.3159 ± 0.0011,0.142 ± 0.012,0.162 ± 0.03,0.2848 ± 0.0003,0.25 ± 0.02
ASGVFSRLVLVS,0.323 ± 0.0038,0.335 ± 0.016,0.284 ± 0.03,0.4576 ± 0.0023,0.173 ± 0.012,0.201 ± 0.024,0.282 ± 0.0035,0.3097 ± 0.0016
FVSAFVCLLCLV,0.58 ± 0.041,0.6283 ± 0.006,0.509 ± 0.0073,0.615 ± 0.0078,0.357 ± 0.013,0.377 ± 0.016,0.4877 ± 0.00084,0.4919 ± 0.004
VGVYVWRGVLWA,0.277 ± 0.025,0.402 ± 0.035,0.257 ± 0.024,0.444 ± 0.0077,0.184 ± 0.0022,0.218 ± 0.028,0.397 ± 0.024,0.296 ± 0.044
PPPRLPLLSCSQ,0.661 ± 0.025,0.679 ± 0.0094,0.669 ± 0.016,0.6752 ± 0.00072,0.632 ± 0.024,0.638 ± 0.034,0.66 ± 0.022,0.408 ± 0.013
GWFCLFFVVSTG,0.213 ± 0.034,0.3162 ± 0.0016,0.225 ± 0.024,0.4003 ± 0.0021,0.203 ± 0.0087,0.225 ± 0.031,0.371 ± 0.012,0.342 ± 0.026
SHPFIRSLVFLA,0.43 ± 0.015,0.6729 ± 0.0026,0.629 ± 0.008,0.721 ± 0.02,0.0816 ± 0.008,0.0711 ± 0.0057,0.0908 ± 0.014,0.103 ± 0.037
IWIRLGSENTVI,0.7085 ± 0.0014,0.7221 ± 0.007,0.646 ± 0.036,0.7489 ± 0.00087,0.672 ± 0.026,0.653 ± 0.032,0.78 ± 0.015,0.443 ± 0.22
WWVAGLGSSGGG,0.738 ± 0.016,0.77959 ± 0.00011,0.663 ± 0.026,0.788 ± 0.0094,0.686 ± 0.031,0.677 ± 0.0094,0.765 ± 0.026,0.7348 ± 0.0046
VSRAVCLWRRLL,0.479 ± 0.006,0.68 ± 0.061,0.618 ± 0.0096,0.7305 ± 0.0018,0.0796 ± 0.0058,0.104 ± 0.036,0.124 ± 0.026,0.0882 ± 0.088
SLFDQDCGGTVW,0.756 ± 0.034,0.78 ± 0.013,0.686 ± 0.016,0.784 ± 0.014,0.655 ± 0.014,0.6706 ± 0.0058,0.804 ± 0.016,0.764 ± 0.027
CSSSNRRRYFVL,0.603 ± 0.034,0.706 ± 0.027,0.66 ± 0.014,0.724 ± 0.033,0.115 ± 0.022,0.131 ± 0.037,0.191 ± 0.0041,0.187 ± 0.023
LRSVVFFCRTLL,0.677 ± 0.045,0.7436 ± 0.0044,0.623 ± 0.014,0.731 ± 0.013,0.3373 ± 0.0013,0.362 ± 0.015,0.566 ± 0.017,0.5 ± 0.0099

# From the supplement of paper PMC10724198
